Reference: patent publication US20150247135A1 (LIGACEPT, published 2015)

Tests used:
[1] = target: T1, E4-Fc (amino acids 1-497 of ErbB4 joined to the IgG2Fc portion) (UniProt Q15303 26-522; P01859 104-326 = IgG part); assay: trap coated on 96 well plate, varying HRG1β, detection antibody; Std Error Kd 2.92 nM
T1 construct: range 1-497;domain: IgG2Fc; Control trap; The 1-497 range counts on mature ErbB4 without the signal peptide; also called ErbB4-IgGFc
Method: (§1) Purified trap molecules were coated on 96 well plates and incubated with either TGFα or HRG1β. Then detection antibodies against TGFα or HRG1β were used to measure the affinity (Kd) and amount of bound ligand (Bmax).
(§2) Traps were coated on 96 well plates and incubated with varying concentrations of either TGFα or HRG1β. Detection antibodies against TGFα or HRG1β were used to measure the affinity (Kd) and amount of bound ligand (Bmax).

[2] = target: T1, E4-Fc (amino acids 1-497 of ErbB4 …); assay: trap coated on 96 well plate, varying HRG1β, detection antibody; Std Error Kd 3.128 nM
Method: as §1, §2

T1 sequence (Q15303 other isoform, or with tags, fused parts or gaps limits assumed): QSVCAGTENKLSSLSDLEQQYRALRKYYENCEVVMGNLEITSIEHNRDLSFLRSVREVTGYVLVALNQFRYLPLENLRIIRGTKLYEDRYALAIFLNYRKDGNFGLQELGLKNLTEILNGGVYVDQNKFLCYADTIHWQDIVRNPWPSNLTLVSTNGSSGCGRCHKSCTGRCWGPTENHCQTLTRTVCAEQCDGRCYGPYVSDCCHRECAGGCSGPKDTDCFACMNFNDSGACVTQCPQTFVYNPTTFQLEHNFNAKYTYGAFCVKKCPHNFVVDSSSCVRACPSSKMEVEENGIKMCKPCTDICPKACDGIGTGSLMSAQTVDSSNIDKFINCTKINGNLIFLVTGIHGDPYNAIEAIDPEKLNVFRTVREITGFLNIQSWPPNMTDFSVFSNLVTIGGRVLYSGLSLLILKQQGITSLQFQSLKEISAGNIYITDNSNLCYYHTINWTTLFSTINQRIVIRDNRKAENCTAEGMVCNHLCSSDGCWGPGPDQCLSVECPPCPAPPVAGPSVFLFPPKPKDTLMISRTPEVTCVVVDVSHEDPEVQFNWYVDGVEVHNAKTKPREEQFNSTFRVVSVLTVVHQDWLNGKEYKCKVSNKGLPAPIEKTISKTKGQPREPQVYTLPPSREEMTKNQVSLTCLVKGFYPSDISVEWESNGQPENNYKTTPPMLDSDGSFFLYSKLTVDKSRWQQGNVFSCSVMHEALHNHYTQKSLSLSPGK

B1: HRG1β (ligand, UniProt Q02297-6 177-241, looked up)
chain: SHLVKCAEKEKTFCVNGGECFMVKDLSNPSRYLCKCPNEFTGDRCQNYVMASFYKHLGIEFMEAE
notes: Soluble ligand incubated with the coated traps; also called heregulin
Kd [1]: 21.2 nM
Kd [2]: 14.5 nM
